Our source for the stoichiometry N values is publication PMC5548806.

Assay [1] deals with CU44 HA ectodomain double mutant F88E/V91W of HA2 fused to the foldon (before the foldon cleavage) (influenza A virus H1N1 A/Thailand/CU44/2006 | not stated). The assay is described as follows: SEC; foldon present (pre-thrombin); Superdex 200 in 50 mM Tris (pH 8.0), 100 mM NaCl, 0.5 ml/min; Fig. 1C. In general terms: Size exclusion chromatography separates by hydrodynamic size, large species first.

Assay [2] has as its target CU44 HA ectodomain mutant F88E of HA2 fused to the foldon (pre-thrombin) (influenza A virus H1N1 A/Thailand/CU44/2006 | not stated). Described as above.
For assay [3], the target named is CU44 HA ectodomain mutant G47E of HA2, foldon removed by thrombin (influenza A virus H1N1 A/Thailand/CU44/2006). The assay is described as follows: SEC; […] (pH 8.0), 100 mM NaCl, 0.5 ml/min; […].
The target of assay [4] is CU44 HA ectodomain mutant R75L of HA2, foldon removed by thrombin (influenza A virus H1N1 A/Thailand/CU44/2006). The assay is described as follows: SEC; […] (pH 8.0), 100 mM NaCl, 0.5 ml/min; […].
Assay [5] concerns the target CU44 HA ectodomain mutant R106E of HA2, foldon removed by thrombin (influenza A virus H1N1 A/Thailand/CU44/2006). The assay is described as follows: SEC; […] (pH 8.0), 100 mM NaCl, 0.5 ml/min; […].
Assay [6] concerns the target CU44 HA ectodomain mutant S199F of HA1, foldon removed by thrombin (influenza A virus H1N1 A/Thailand/CU44/2006). The assay is described as follows: SEC; […] (pH 8.0), 100 mM NaCl, 0.5 ml/min; […].
The target of assay [7] is CU44 HA ectodomain mutant V91W of HA2 fused to the foldon (pre-thrombin) (influenza A virus H1N1 A/Thailand/CU44/2006 | not stated). The experiment in a line: SEC; foldon present (pre-thrombin); Superdex 200 in 50 mM Tris (pH 8.0), 100 mM NaCl, 0.5 ml/min; Fig. 1C.
The target in assay [8] is CU44 wild-type HA ectodomain (A/Thailand/CU44/2006), foldon removed by thrombin (influenza A virus H1N1 A/Thailand/CU44/2006). The experiment in a line: SEC; […] (pH 8.0), 100 mM NaCl, 0.5 ml/min; […].

The stoichiometry N is the number of molecules, sites or subunits per partner or assembly.

Take “CU44 HA ectodomain double mutant F88E/V91W of HA2 fused to the foldon (before the foldon cleavage)”: the stoichiometry N in assay [1] came out at 3.
With “CU44 HA ectodomain mutant F88E of HA2 fused to the foldon (pre-thrombin)”, the stoichiometry N in assay [2] came out at 3.
As for “CU44 HA ectodomain mutant G47E of HA2, foldon removed by thrombin (domain or fragment)”, in assay [3], the stoichiometry N is 3.
On to “CU44 HA ectodomain mutant R75L of HA2, foldon removed by thrombin (domain or fragment)”, for which the stoichiometry N in assay [4] was found to be 3.
Substance “CU44 HA ectodomain mutant R106E of HA2, foldon removed by thrombin (domain or fragment)” returned a stoichiometry N in assay [5] of 3.
As for “CU44 HA ectodomain mutant S199F of HA1, foldon removed by thrombin (domain or fragment)”, the stoichiometry N in assay [6] was determined as 3.
“CU44 HA ectodomain mutant V91W of HA2 fused to the foldon (pre-thrombin)” registered a stoichiometry N in assay [7] of 3.
“CU44 wild-type HA ectodomain (A/Thailand/CU44/2006), foldon removed by thrombin (domain or fragment)” gave a stoichiometry N in assay [8] of 3.
